We go through 1 substance from publication PMC10725331.

Among the targets are GFP-TRKB.wt (rat) (UniProt Q63604); GFP-TRKB/TRKA.TM (rat) (UniProt Q63604); GFP-TRKB.Tyr433Phe (rat) (UniProt Q63604).
What all share (assay): direct binding assay (cell-free, plate-based luminescence); GFP-TRKB from 120 ug HEK293T lysate captured on anti-GFP coated 96-well plate; biotinylated BDNF 0.1-100 pM added for 1 h at RT in PBS; HRP-streptavidin and ECL; blank wells subtracted

With “biotinylated BDNF (brain-derived neurotrophic factor) (ligand)”, the Kd (as a rule, the constant that tells how readily two partners part at equilibrium) with GFP-TRKB.wt (rat) was determined as 0.39 pM; with GFP-TRKB/TRKA.TM (rat) it was 0.387 pM; in the test with GFP-TRKB.Tyr433Phe (rat), 0.438 pM.
